The target in experiment [1] is SURF6-N (N-terminal segment of Surfeit locus protein 6, residues 1-182) (UniProt O75683).
In experiment [2] the target is NPM1^mutB2 (Lys and Arg to Ala in the B2-tract) (UniProt P06748).

Chain of UniProt O75683 (O75683 1-182): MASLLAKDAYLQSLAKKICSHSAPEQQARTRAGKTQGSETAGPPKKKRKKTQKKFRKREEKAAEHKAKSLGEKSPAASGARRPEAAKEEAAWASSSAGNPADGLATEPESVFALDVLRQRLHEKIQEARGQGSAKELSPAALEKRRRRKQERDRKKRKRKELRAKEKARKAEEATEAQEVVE

In experiment [1], “NPM1^N188 (NPM1 truncation that lacks the CTD plus the B2-tract) (domain or fragment)” registered a threshold concentration for heterotypic LLPS with SURF6-N (turbidity, Fig. 2c) of 30 µM. Substance “NPM1^mutB2 (Lys and Arg to Ala in the B2-tract) (from UniProt P06748 1-294) (natural protein)” registered a threshold SURF6-N concentration for heterotypic LLPS, NPM1 construct at 20 µM (turbidity) in experiment [2] of 60 µM.

The record behind these values is article PMC5827731.
